Experimental findings from patent US8415106B2, “Cell-based screen for agents useful for reducing neuronal demyelination or promoting neuronal remyelination” (Myelin Repair Foundation, Inc., priority 2005, dated 2013) are described below.

Assay [1] deals with ER stress markers (BIP, CHOP, p-eIF-2α, caspase-12). As to the kind of experiment: ER stress markers in IFN-γ-treated cultured rat oligodendrocytes (real-time PCR, Western blot). The class given is cell-based. As for the experimental part:
(§1) To test whether apoptosis of oligodendrocytes that is induced by INF-γ affects ER stress, the effect on the morphology, the degree of apoptosis and the expression of ER markers was studied in a culture of oligodendrocyte precursor cells (OPC). Oligodendrocyte progenitors were cultured from neonatal rat brains (Baerwald, et al. (1998) J. Neurosci. Res. 52: 230-239). A mixed glial culture was grown in flasks in medium containing 10% fetal bovine serum (FBS), and when the astrocyte layer became confluent (10-14 days), oligodendrocyte progenitors were separated from astrocytes and microglia using an orbital shaker. Cells, greater than 95% of which were A2B5 positive, GFAP negative and CD11b negative, were cultured in 0.5% FBS containing medium, which also contained PDGF (10 ng/ml) and FGF (5 ng/ml) (both from R&D Systems, Minneapolis, Minn.). Then cells were switched to 0.5% FBS medium without PDGF and FGF for differentiation. After 5 days in the differentiating medium, approximately 40% of cells were positive for myelin protein 2′3′-cyclic nucleotide 3′-phosphodiestaerase (CNP). 70 U/ml recombinant rat IFN-γ (Calbiochem, La Jolla, Calif.) was added to the cells that had been allowed to differentiation for 5 days. After 5 d in the differentiatiating medium, about 40% of the cells were CNP positive. 70 U/ml of recombinant rat INF-γ (Calbiochem) was added to the cells that had been allowed to differentiate for 5 d. […]
To determine whether INF-γ affects ER function, the RNA expression of ER markers binding immunoglobulin protein (BIP), CAAT enhancer binding protein homologous protein (CHOP), and caspase 12 was determined using real time PCR. […]
To determine the effect of INF-γ on the level of phosphorylated eIF-2α and caspase 12 proteins, western blot analysis was performed using the following antibodies anti-eIF-2α (1:500; Santa Cruz), anti-p-eIF-2α (1:1000, Cell signaling Technology), anti-caspase-12 (1:500; Santa Cruz) and anti-actin (1:1000; Sigma, St Louis, Mo.), and according to the following protocol. […] The protein content of each extract was determined by protein assay (Bio-Rad). […]

In another assay the test system is rat oligodendrocytes. Kind of assay: IFN-γ-induced apoptosis in cultured rat oligodendrocytes (TUNEL/CNP, caspase-3 activity). The class given is cell-based. The procedure: as §1, with “differentiation.” for “differentiation. After 5 days in the differentiating medium, approximately 40% of cells were positive for myelin protein 2′3′-cyclic nucleotide 3′-phosphodiestaerase (CNP). 70 U/ml recombinant rat IFN-γ (Calbiochem, La Jolla, Calif.) was added to the cells that had been allowed to differentiation for 5 days. After 5 d in the differentiatiating medium, about 40% of the cells were CNP positive. 70 U/ml of recombinant rat INF-γ (Calbiochem) was added to the cells that had been allowed to differentiate for 5 d.”
The level of apoptosis of the OPC cells was determined by double staining CNP (1:200; Sternberger Monoclonals, Lutherville, Md.) and TUNEL using the ApopTag Kit (Serologicals Corp., Norcross, Calif.) and following the manufacturer's instructions. Apoptosis was also evaluated by measuring the activity of caspase-3 in oligodendrocyte lysates using the Fluorimetric Caspase 3 Assay Kit (Sigma, St. Louis, Mo.), according to the manufacturer's instructions.

B1: IFN-γ: pleotropic cytokine secreted by activated T lymphocytes and natural killer cells; recombinant rat IFN-γ added to cultures or transgenically expressed in mouse CNS (protein, UniProt P01581 23-156, looked up)
Interferon gamma: QGTLIESLESLKNYFNSSSMDAMEGKSLLLDIWRNWQKDGNTKILESQIISFYLRLFEVLKDNQAISNNISVIESHLITNFFSNSKAKKDAFMSIAKFEVNNPQIQHKAVNELIRVIHQLSPESSLRKRKRSRC
On to B1, for which the “caspase-12 expression (real-time PCR)” value in assay [1] (70 U/ml IFN-γ) was “induction of caspase-12 was observed”. Besides, the “level of phosphorylated eIF-2α (Western blot)” value in assay [1] (70 U/ml IFN-γ, oligodendroglial cultures) was “significantly elevated”. In addition, the “level of the active fragment of caspase-12 (Western blot)” value in assay [1] (after 48 h of IFN-γ treatment) is “strongly elevated”. The “caspase-3 activity in the cell lysates” value in the assay with rat oligodendrocytes (70 U/ml IFN-γ) is on record as “markedly increased”. Besides, the “TUNEL and CNP double labeling (apoptosis)” value in the assay with rat oligodendrocytes (70 U/ml IFN-γ for 48 h, oligodendrocytes differentiated 5 days) is “induced apoptosis in a significant number of oligodendrocytes”.
